In patent publication US20050048572A1 (Genentech, published 2005):

How the values were obtained:
[1] = target: T1, Human VEGF 165 (human, UniProt P15692 27-191); assay: SPR (BIAcore-3000), apparent Kd from koff/kon, VEGF165 immobilised, 37 C
T1 construct: mature; The 165-residue isoform without signal peptide; made in E. coli as in Simmons & Yansura 1996
Experimental: (§1) A CM-5 biosensor chip (Biacore, Inc.) was activated according to the manufacturer's instructions for amine coupling. […] Unreacted groups were blocked with 1 M ethanolamine. […] The kinetics of IgG variants binding to immobilized VEGF were measured with 2-fold serial dilutions beginning with 500 nM IgG in running buffer (PBS, 0.05% Tween, 0.01% sodium azide) at a flow rate of 20 μl/min (see FIG. 12). Binding measurements were carried out at 37° C. Regeneration of the chip after each cycle was with 20 mM HCl, followed by washing, an injection of 100 mM Tris pH 8.0, and additional washing.
(§2) The kinetic curves were fit to a 1:1 Langmuir binding model using BIAcore evaluation software version 3, which calculated association (kₒₙ) and dissociation (koff) rates. An apparent equilibrium constant, Kd, was calculated from koff/kₒₙ for each variant (Table 7).

[2] = target: T1, Human VEGF 165; assay: SPR (BIAcore-3000), VEGF165 immobilised on CM-5 chip, IgG in solution, 37 C, 1:1 Langmuir fit
Experimental: as §1, §2

T1 sequence (P15692 other isoform, or with tags, fused parts or gaps): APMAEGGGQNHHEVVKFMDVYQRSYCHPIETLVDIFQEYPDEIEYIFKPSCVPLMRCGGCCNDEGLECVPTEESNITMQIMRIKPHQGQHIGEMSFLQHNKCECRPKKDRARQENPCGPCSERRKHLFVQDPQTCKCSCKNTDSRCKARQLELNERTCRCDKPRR

Kd [1]: 0.25 nM
koff [2]: 5.9e-06 s⁻¹
kon [2]: 23000 M⁻¹ s⁻¹
B1: anti-VEGF antibody VNERK, full-length, wild type hinge, produced in E. coli (antibody, V domains shown)
VH: EVQLVESGGGLVQPGGSLRLSCAASGYTFTNYGINWVRQAPGKGLEWVGWINTYTGEPTYAADFKRRFTFSLDTSKSTAYLQMNSLRAEDTAVYYCAKYPHYYVNERKSHWYFDVWGQGTLVTVSS
VL: DIQLTQSPSSLSASVGDRVTITCSASQDISNYLNWYQQKPGKAPKVLIYFTSSLHSGVPSRFSGSGSGTDFTLTISSLQPEDFATYYCQQYSTVPWTFGQGTKVEIKR
notes: Full-length aglycosylated human IgG1 made in E. coli; also called VNERK wild type; VNERK hinge wild type
